The text below walks through data of the Immune Epitope Database (IEDB).

A word on the Kd: it is the free concentration of one partner at which half of the binding sites on the other are occupied at equilibrium, for simple one-to-one binding.

One assay deals with HLA-A*02:01. Put plainly: IEDB peptide-MHC binding, purified MHC/direct/fluorescence; filed as Kd, often an IC50 or EC50 that approximates it; ≥ and ≤ were set here for values at or beyond the usual limits of such assays. The note with it: source organism: Mammarenavirus juninense.
The next assay addresses HLA-A*02:02. Briefly: IEDB peptide-MHC binding, purified MHC/competitive/radioactivity; filed as Kd, often an IC50 or EC50 that approximates it; ≥ and ≤ were set here for values at or beyond the usual limits of such assays.
Another assay deals with HLA-A*02:03. The description is as above.
Another assay has as its target HLA-A*02:06. The description is as above.
A further assay deals with HLA-B*15:01. Briefly: IEDB peptide-MHC binding, purified MHC/direct/fluorescence; filed as Kd, often an IC50 or EC50 that approximates it; ≥ and ≤ were set here for values at or beyond the usual limits of such assays. The conditions noted are these: source organism: Homo sapiens.
For another assay, the target named is HLA-A*03:01. The assay is described as above. The conditions noted are these: source organism: Escherichia coli.
Setting [1] is: source organism: Mammarenavirus juninense.
Setting [2] is: source organism: Vaccinia virus WR.
Setting [3] is: source organism: Lymphocytic choriomeningitis virus (strain Armstrong).
Where [4] appears, read: source organism: Lassa virus Josiah.
Where [5] appears, read: source organism: SARS coronavirus Tor2.

Bounds are passed on as bounds.

Turning to AMPGVLSYV, the Kd with HLA-A*02:01 worked out at 0.0036 µM; with HLA-A*02:02 (setting [1]) it was 0.00422 µM; with HLA-A*02:03 (setting [1]), 0.00729 µM; with HLA-A*02:06 (setting [1]), 0.0218 µM.
The sequence EADPTGHSY displayed a Kd in the assay with HLA-B*15:01 of 13.5 µM.
For LPYTFMLRK, the Kd in the assay with HLA-A*03:01 is ≥ 20 µM.
Take NIVTDLENRL: the Kd turned out to be 0.261 µM in the assay with HLA-A*02:02 (setting [2]), 17.6 µM with HLA-A*02:03 (setting [2]) and 1.55 µM with HLA-A*02:06 (setting [2]).
The corresponding values for NMDKVSAQNI are 8.02 µM, 16.8 µM and ≥ 69.8 µM.
Take NSLILLECFV: the Kd with HLA-A*02:02 (setting [3]) turned out to be 0.00121 µM; with HLA-A*02:03 (setting [3]), 0.0466 µM; with HLA-A*02:06 (setting [3]), 0.00417 µM.
Consider PASISSVLT, for which the equilibrium dissociation constant (Kd) with HLA-A*02:02 (setting [2]) is 1.38 µM; with HLA-A*02:03 (setting [2]) it was 1.36 µM; with HLA-A*02:06 (setting [2]) it was 1.49 µM.
PTILATLNTL: the values for the equilibrium dissociation constant (Kd) with HLA-A*02:02 (setting [2]), with HLA-A*02:03 (setting [2]) and with HLA-A*02:06 (setting [2]) were 0.374 µM, 0.13 µM and 0.771 µM, respectively.
For QLMYDIINSV, the dissociation constant (Kd) in the assay with HLA-A*02:02 (setting [2]) amounted to 0.00187 µM; with HLA-A*02:03 (setting [2]), 0.000139 µM; in the assay with HLA-A*02:06 (setting [2]), 0.00561 µM.
For QQLCTMERT, the equilibrium dissociation constant (Kd) in the assay with HLA-A*02:02 (setting [2]) is ≥ 77.8 µM; with HLA-A*02:03 (setting [2]), 4.52 µM; with HLA-A*02:06 (setting [2]), 0.929 µM.
For RQQLEDIFM, in that order: 5.73 µM, ≥ 26.9 µM and 0.944 µM.
The corresponding values for RVFKKIMSI are 0.35 µM, 0.00018 µM and 0.0752 µM.
With RVNDLNRMPT, the Kd came to 1.36 µM with HLA-A*02:02 (setting [2]), 1.44 µM in the assay with HLA-A*02:03 (setting [2]) and 7.72 µM in the assay with HLA-A*02:06 (setting [2]).
For RVNHAKYMVT, in that order: ≥ 33.6 µM, 1.05 µM and 9.33 µM.
Take SIINHKFCNL: the figures for the Kd in the assay with HLA-A*02:02 (setting [4]), in the assay with HLA-A*02:03 (setting [4]) and with HLA-A*02:06 (setting [4]) were 0.247 µM, 0.562 µM and 1.01 µM, respectively.
For the sequence SIPISELSRL, the results for the Kd in the assay with HLA-A*02:02 (setting [2]), in the assay with HLA-A*02:03 (setting [2]) and with HLA-A*02:06 (setting [2]) were 0.252 µM, 0.0606 µM and 0.0782 µM, respectively.
For SLVYGIRCV, in that order: 2.94 µM, 0.00383 µM and 0.168 µM.
For the sequence SLYKGVYEL, the Kd with HLA-A*02:02 (setting [4]) turned out to be 0.0568 µM; in the assay with HLA-A*02:03 (setting [4]) it was 0.00581 µM; in the assay with HLA-A*02:06 (setting [4]) it was 0.394 µM.
As for STTGEWPLI, the dissociation constant Kd with HLA-A*02:02 (setting [2]) was ≥ 21.1 µM; with HLA-A*02:03 (setting [2]) it was ≥ 44.5 µM; in the assay with HLA-A*02:06 (setting [2]), 1.24 µM.
For SVDEEGCGPL, in that order: 14.8 µM, ≥ 38.7 µM and 12.7 µM.
The corresponding values for TAIRAGYSI are 14.5 µM, 9.2 µM and 7.69 µM.
The corresponding values for TICLKNEGV are 0.494 µM, 0.12 µM and 0.311 µM.
In the case of TTPLISFFGL, the Kd in the assay with HLA-A*02:02 (setting [2]) is ≥ 5 µM; with HLA-A*02:03 (setting [2]), 17.6 µM; in the assay with HLA-A*02:06 (setting [2]) it was 3.36 µM.
In the case of VIDRLPSET, the dissociation constant Kd with HLA-A*02:02 (setting [2]) stood at 7.08 µM; with HLA-A*02:03 (setting [2]), 0.742 µM; with HLA-A*02:06 (setting [2]), 3.67 µM.
For VLKAMHDKKI, in that order: ≥ 48.9 µM, ≥ 33.9 µM and ≥ 69.8 µM.
For VMHINSPFKV, in that order: 0.0603 µM, 0.00251 µM and 0.393 µM.
VMYASALVLL: the figures for the Kd with HLA-A*02:02 (setting [5]), with HLA-A*02:03 (setting [5]) and with HLA-A*02:06 (setting [5]) were 0.000251 µM, 0.00403 µM and 0.0414 µM, respectively.
The corresponding values for WLVIGVAFL are 0.00257 µM, 0.000942 µM and 0.18 µM.
As to YIESKAKQL, the equilibrium dissociation constant (Kd) with HLA-A*02:02 (setting [2]) came to 0.144 µM; in the assay with HLA-A*02:03 (setting [2]), 0.439 µM; with HLA-A*02:06 (setting [2]), 2.99 µM.
The corresponding values for YIMRVMANNV are 0.023 µM, 0.00196 µM and 0.0142 µM.
As to YLVQQESSFV, the dissociation constant (Kd) with HLA-A*02:02 (setting [5]) came out at 12.7 µM; in the assay with HLA-A*02:03 (setting [5]), 0.0175 µM; in the assay with HLA-A*02:06 (setting [5]), 0.386 µM.
YVKNGTKGKL: the Kd in the assay with HLA-A*02:02 (setting [2]) was 5.72 µM; with HLA-A*02:03 (setting [2]) it was 7.17 µM; with HLA-A*02:06 (setting [2]), ≥ 28.4 µM.
